Laboratory results as given in article PMC12607895.

Legend:
[1] = molecular target: CD46 (human) (UniProt P15529); assay: SPR; Biacore T200; CD46 or CAR amine-coupled to a CM5 chip (2,390-2,640 RU CD46, 2,380-2,870 RU CAR); whole virions as analyte, twofold series 50-12.5 µg/mL, 120 s at 30 µL/min; 25°C, HBS-EP+ (10 mM HEPES, 150 mM NaCl, 3 mM EDTA, 0.005% P20, pH 7.4); performed once
[2] = molecular target: coxsackievirus and adenovirus receptor (CAR) (UniProt P78310); assay: as above
Sequence of coxsackievirus and adenovirus receptor (CAR) (P78310 20-365): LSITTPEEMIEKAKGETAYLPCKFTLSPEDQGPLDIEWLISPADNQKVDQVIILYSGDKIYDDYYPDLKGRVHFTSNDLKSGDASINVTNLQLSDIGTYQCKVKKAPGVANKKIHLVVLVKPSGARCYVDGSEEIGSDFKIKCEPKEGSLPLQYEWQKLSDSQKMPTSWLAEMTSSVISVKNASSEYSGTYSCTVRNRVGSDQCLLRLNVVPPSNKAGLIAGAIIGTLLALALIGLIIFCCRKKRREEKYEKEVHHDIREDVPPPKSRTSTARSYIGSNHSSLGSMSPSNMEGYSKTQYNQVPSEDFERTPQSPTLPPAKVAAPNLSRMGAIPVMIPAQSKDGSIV

Sequence of CD46 (human) (P15529 35-392): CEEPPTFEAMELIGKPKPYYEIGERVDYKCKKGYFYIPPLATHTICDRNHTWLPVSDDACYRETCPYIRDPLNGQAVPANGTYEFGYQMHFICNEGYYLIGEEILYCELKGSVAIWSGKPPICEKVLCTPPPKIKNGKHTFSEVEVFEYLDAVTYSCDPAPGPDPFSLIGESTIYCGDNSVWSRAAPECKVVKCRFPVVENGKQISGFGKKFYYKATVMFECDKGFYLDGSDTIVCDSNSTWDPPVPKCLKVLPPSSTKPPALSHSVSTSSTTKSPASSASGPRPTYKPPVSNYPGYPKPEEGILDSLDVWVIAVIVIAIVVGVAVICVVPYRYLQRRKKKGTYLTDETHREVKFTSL

| Substance | Kd [1] [nM] | Kd [2] [nM] |
| --- | --- | --- |
| HAdV-B11 virion (complex) | 0.0048 |  |
| HAdV-D26 virion (complex) |  | 0.076 |
| HAdV-D37 virion (complex) | 0.1 |  |
| HAdV-D39 virion (complex) | 0.1 |  |
